Data set [1] concerns the target T1, NS1 RBD H7N1 (Influenza A virus (avian H7N1; allele B), UniProt Q1PST0 1-73). In words: X-ray crystallography; 2.30 A; 2 M ammonium sulfate. Conditions: protein: recombinant; tags: N-His thrombin-cleaved (vector residues remain); chain copies: 2.
For data set [2], the target named is T1, NS1 RBD H7N1. In words: EMSA. Particulars: protein: recombinant; tags: N-His thrombin-cleaved (vector residues remain); chain copies: 2; label: 5'-32P. (A gel shift assay detects complexes by their altered migration in electrophoresis.)
Data set [3] concerns the target T1, NS1 RBD H7N1. In words: competition EMSA; EC50app vs labelled AWFC01. Particulars: protein: recombinant, tags: N-His thrombin-cleaved (vector residues remain), chain copies: 2.
Data set [4] concerns the target NS1 RBD H7N9 (Influenza A virus (H7N9), UniProt S4VCY8 1-73). In words: EMSA. Particulars: protein: recombinant; tags: N-His thrombin-cleaved; chain copies: 2; label: 5'-32P.
The target in data set [5] is NS1 RBD H17N10 (Influenza A virus (H17N10), UniProt H6QM79 1-73). In words: EMSA. Conditions: protein: recombinant; tags: N-His thrombin-cleaved; chain copies: 2; label: 5'-32P.

B1: ZKO* (dsRNA)
RNA 1: AGACAGCAUUAUGCUGUCU
RNA 2: AGACAGCAUUAUGCUGUCU
In the case of B1, in data set [1], the binding result was “binds”.

With AGCAAAAG (ssRNA) [DM01-mot A], the binding result in data set [2] is on record as “no binding”.

B2: AWFC01 (dsRNA)
RNA 1: GGUAACUGUUACAGUUACC
RNA 2: GGUAACUGUUACAGUUACC
Broadly, the IC50 is the concentration that gives 50% inhibition. As usually defined, the Kd is the free concentration of one partner at which half of the binding sites on the other are occupied at equilibrium, for simple one-to-one binding. In the case of B2, the IC50 in data set [3] (label: 5'-32P) was 1.7 ± 0.1 nM. The Kd in data set [4] was found to be 3.1 ± 0.1 nM; in data set [2], 0.83 ± 0.03 nM; in data set [5] it was 1.5 ± 0.1 nM.

For UGAUUGAAG (ssRNA) [DM03-mot B], the binding result in data set [2] is “no binding”.

B3: ZKO (dsRNA)
RNA 1: AGACAGCAUUAUGCUGUCUUU
RNA 2: AGACAGCAUUAUGCUGUCUUU
In the case of B3, in data set [3], the IC50 came to 96 ± 3 nM.
